Results on 3 substances are retold here after publication PMC6412040.

The target of assay [1] is USP37^mUIM1,2,3 (Danio rerio USP37 312–927 with mutations in all three UIMs) (Danio rerio) (UniProt E7F6T8).
The target in assay [2] is USP37^wt (isolated catalytic domain of USP37 from Danio rerio, residues 312–927) (Danio rerio) (UniProt E7F6T8).
Chain of USP37^wt (isolated catalytic domain of USP37 from Danio rerio, residues 312–927) (Danio rerio) (E7F6T8 312-927): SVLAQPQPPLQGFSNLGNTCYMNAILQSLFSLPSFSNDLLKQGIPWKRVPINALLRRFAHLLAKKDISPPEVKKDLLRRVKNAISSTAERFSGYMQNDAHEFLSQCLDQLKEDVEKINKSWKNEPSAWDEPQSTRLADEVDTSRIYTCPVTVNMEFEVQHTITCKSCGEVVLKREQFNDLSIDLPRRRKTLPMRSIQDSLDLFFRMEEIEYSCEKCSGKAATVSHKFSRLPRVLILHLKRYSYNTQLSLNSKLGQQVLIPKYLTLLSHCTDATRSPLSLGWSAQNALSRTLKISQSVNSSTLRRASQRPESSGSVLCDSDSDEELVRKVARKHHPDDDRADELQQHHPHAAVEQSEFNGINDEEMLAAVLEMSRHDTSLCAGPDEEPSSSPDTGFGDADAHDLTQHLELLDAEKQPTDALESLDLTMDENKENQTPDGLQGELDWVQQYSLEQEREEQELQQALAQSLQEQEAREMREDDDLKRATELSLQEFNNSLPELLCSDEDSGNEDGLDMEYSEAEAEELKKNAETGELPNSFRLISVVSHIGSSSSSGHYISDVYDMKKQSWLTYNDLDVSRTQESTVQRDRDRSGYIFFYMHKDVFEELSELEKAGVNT

Chain of USP37^mUIM1,2,3 (Danio rerio USP37 312–927 with mutations in all three UIMs) (Danio rerio) (E7F6T8 312-927 V680G/S684A/A774G/S778A/A796G/S800A): as the sequence (E7F6T8 312-927) above, with V369G, S373A, A463G, S467A, A485G, S489A counted along it

Regarding “K63-linked di-Ub (from UniProt P0CG48 1-76; P0CG48 1-76) (complex)”, in assay [1], the KM of cleavage of K63-linked di-Ub (1 part IQF di-Ub, 4 parts unlabeled chain), Michaelis-Menten analysis, 12.5 nM enzyme was found to be 3.6 µM and the kcat of cleavage of K63-linked di-Ub (1 part IQF di-Ub, 4 parts unlabeled chain), Michaelis-Menten analysis worked out at 0.008 s⁻¹. In assay [2], the KM of cleavage of K63-linked di-Ub (1 part IQF di-Ub, 4 parts unlabeled chain), Michaelis-Menten analysis, 12.5 nM enzyme is 1.7 µM and the kcat of cleavage of K63-linked di-Ub (1 part IQF di-Ub, 4 parts unlabeled chain), Michaelis-Menten analysis came out at 0.027 s⁻¹.
“K48-linked di-Ub (from UniProt P0CG48 1-76; P0CG48 1-76) (complex)”: in assay [1], the KM of cleavage of K48-linked di-Ub (1 part IQF di-Ub, 4 parts unlabeled chain), Michaelis-Menten analysis, 1.25 nM enzyme came to 0.72 µM and the kcat of cleavage of K48-linked di-Ub (1 part IQF di-Ub, 4 parts unlabeled chain), Michaelis-Menten analysis came out at 0.015 s⁻¹. In assay [2], the KM of cleavage of K48-linked di-Ub (1 part IQF di-Ub, 4 parts unlabeled chain), Michaelis-Menten analysis, 1.25 nM enzyme was 0.4 µM and the kcat of cleavage of K48-linked di-Ub (1 part IQF di-Ub, 4 parts unlabeled chain), Michaelis-Menten analysis was 0.23 s⁻¹.
Turning to “K11-linked di-Ub (from UniProt P0CG48 1-76; P0CG48 1-76) (complex)”, in assay [1], the KM of cleavage of K11-linked di-Ub (1 part IQF di-Ub, 4 parts unlabeled chain), Michaelis-Menten analysis, 25 nM enzyme worked out at 19 µM and the kcat of cleavage of K11-linked di-Ub (1 part IQF di-Ub, 4 parts unlabeled chain), Michaelis-Menten analysis turned out to be 0.072 s⁻¹. In assay [2], the KM of cleavage of K11-linked di-Ub (1 part IQF di-Ub, 4 parts unlabeled chain), Michaelis-Menten analysis, 25 nM enzyme turned out to be 11 µM and the kcat of cleavage of K11-linked di-Ub (1 part IQF di-Ub, 4 parts unlabeled chain), Michaelis-Menten analysis worked out at 0.19 s⁻¹.
